From the supplement of paper PMC9112550, “Optimization of the antimicrobial peptide Bac7 by deep mutational scanning” (BMC Biology, 2022)

Test system: Escherichia coli TOP10
Test: shrunken log2 fold change of peptide-encoding DNA abundance (4.5 h post-induction vs induction); higher = less antimicrobial activity (less host growth inhibition)
Details: time post-induction: 4.5 h; library: site-saturation at positions 5, 18, 19, 20
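Also: peptides expressed intracellularly from a pBAD plasmid library in pooled LB shake-flask culture, induced with 0.3% L-arabinose, DNA abundance read by NGS, three biological replicates, DESeq2 with apeglm shrinkage.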

| Sequence | shrunken log2 fold change |
| --- | --- |
| RRIRARPPRLPRPRPRPYIDPRP | -0.186 |
| RRIRKRPPRLPRPRPRPGAQPRP | 0.496 |
| RRIRSRPPRLPRPRPRPPELPRP | 0.629 |
| RRIRARPPRLPRPRPRPNRLPRP | 0.0862 |
| RRIRYRPPRLPRPRPRPQCNPRP | -0.269 |
| RRIRDRPPRLPRPRPRPWRFPRP | -0.277 |
| RRIRWRPPRLPRPRPRPWFPPRP | -0.0213 |
| RRIRVRPPRLPRPRPRPVWRPRP | 0.309 |
| RRIRARPPRLPRPRPRPFNYPRP | -0.0393 |
| RRIRSRPPRLPRPRPRPHDLPRP | 0.0653 |
| RRIRNRPPRLPRPRPRPSWNPRP | -0.191 |
| RRIRKRPPRLPRPRPRPMTAPRP | 0.832 |
| RRIRCRPPRLPRPRPRPWWEPRP | -0.368 |
| RRIRHRPPRLPRPRPRPFSMPRP | -0.0138 |
| RRIRPRPPRLPRPRPRPELVPRP | 0.442 |
| RRIRMRPPRLPRPRPRPCWKPRP | -0.0216 |
| RRIRARPPRLPRPRPRPLIEPRP | 0.388 |
| RRIRPRPPRLPRPRPRPLCWPRP | 0.266 |
| RRIRPRPPRLPRPRPRPKTDPRP | -0.0446 |
| RRIRRRPPRLPRPRPRPAWDPRP | 0.324 |
| RRIRGRPPRLPRPRPRPYAMPRP | 0.451 |
| RRIRLRPPRLPRPRPRPHTWPRP | -0.202 |

| Sequence | shrunken log2 fold change |
| --- | --- |
| RRIRNRPPRLPRPRPRPVHHPRP | -2.09 |
| RRIRNRPPRLPRPRPRPTWKPRP | 0.0378 |
| RRIRQRPPRLPRPRPRPRSQPRP | 0.0421 |
| RRIRRRPPRLPRPRPRPPGEPRP | 0.705 |
| RRIRRRPPRLPRPRPRPVLSPRP | 0.0336 |
| RRIRPRPPRLPRPRPRPPPEPRP | 0.492 |
| RRIRNRPPRLPRPRPRPGRKPRP | 0.132 |
| RRIRHRPPRLPRPRPRPNIQPRP | -0.141 |
| RRIRKRPPRLPRPRPRPYSSPRP | -0.239 |
| RRIRWRPPRLPRPRPRPVFIPRP | -0.22 |
| RRIRLRPPRLPRPRPRPYIVPRP | -0.0573 |
| RRIRSRPPRLPRPRPRPNHWPRP | -0.277 |
| RRIRDRPPRLPRPRPRPVICPRP | 0.0219 |
| RRIRERPPRLPRPRPRPRSVPRP | -0.219 |
| RRIRNRPPRLPRPRPRPLMFPRP | -0.947 |
| RRIRDRPPRLPRPRPRPIQGPRP | 0.00911 |
| RRIRSRPPRLPRPRPRPWVQPRP | 0.127 |
| RRIRLRPPRLPRPRPRPNTRPRP | -0.273 |
| RRIRCRPPRLPRPRPRPIWLPRP | 0.122 |
| RRIRQRPPRLPRPRPRPQAVPRP | 0.00748 |
| RRIRVRPPRLPRPRPRPPGCPRP | 0.232 |
| RRIRDRPPRLPRPRPRPETPPRP | 0.904 |

| Sequence | shrunken log2 fold change |
| --- | --- |
| RRIRNRPPRLPRPRPRPDQRPRP | 0.021 |
| RRIRRRPPRLPRPRPRPELWPRP | 0.518 |
| RRIRDRPPRLPRPRPRPMMNPRP | -0.00862 |
| RRIRYRPPRLPRPRPRPQPAPRP | 0.0964 |
| RRIRWRPPRLPRPRPRPPMGPRP | 0.362 |
| RRIRDRPPRLPRPRPRPSTTPRP | 0.0945 |
| RRIRCRPPRLPRPRPRPFHIPRP | -1.96 |
| RRIRRRPPRLPRPRPRPWWMPRP | 0.386 |
| RRIRCRPPRLPRPRPRPYCHPRP | -1.37 |
| RRIRERPPRLPRPRPRPQGMPRP | -0.284 |
| RRIRTRPPRLPRPRPRPYGMPRP | -0.0576 |
| RRIRQRPPRLPRPRPRPEFNPRP | -0.0823 |
| RRIRRRPPRLPRPRPRPWFVPRP | 0.214 |
| RRIRGRPPRLPRPRPRPYCTPRP | -0.0267 |
| RRIRFRPPRLPRPRPRPDDQPRP | -0.151 |
| RRIRTRPPRLPRPRPRPGCEPRP | -0.117 |
| RRIRLRPPRLPRPRPRPGREPRP | 0.231 |
| RRIRPRPPRLPRPRPRPICCPRP | -0.139 |
| RRIRYRPPRLPRPRPRPNQYPRP | -1.18 |
| RRIRRRPPRLPRPRPRPMCIPRP | -0.182 |
| RRIRIRPPRLPRPRPRPSRNPRP | -0.124 |
| RRIRRRPPRLPRPRPRPHKIPRP | -0.182 |

| Sequence | shrunken log2 fold change |
| --- | --- |
| RRIRWRPPRLPRPRPRPSQHPRP | 0.0667 |
| RRIRYRPPRLPRPRPRPVLKPRP | -0.122 |
| RRIRYRPPRLPRPRPRPAKRPRP | 0.167 |
| RRIRPRPPRLPRPRPRPNADPRP | 0.0878 |
| RRIRPRPPRLPRPRPRPIWQPRP | 0.0572 |
| RRIRKRPPRLPRPRPRPRVGPRP | 0.279 |
| RRIRMRPPRLPRPRPRPYLCPRP | -0.165 |
| RRIRYRPPRLPRPRPRPPMMPRP | -0.836 |
| RRIRQRPPRLPRPRPRPPQEPRP | -0.00749 |
| RRIRFRPPRLPRPRPRPIEVPRP | 0.0653 |
| RRIRCRPPRLPRPRPRPFPNPRP | -0.0279 |
| RRIRCRPPRLPRPRPRPAWKPRP | 0.0545 |
| RRIRQRPPRLPRPRPRPPKCPRP | -0.37 |
| RRIRQRPPRLPRPRPRPVLQPRP | -0.107 |
| RRIRKRPPRLPRPRPRPPHNPRP | 0.465 |
| RRIRFRPPRLPRPRPRPGAAPRP | 0.517 |
| RRIRHRPPRLPRPRPRPDRMPRP | -0.093 |
| RRIRRRPPRLPRPRPRPNDIPRP | -0.349 |
| RRIRWRPPRLPRPRPRPNVMPRP | -0.00962 |
| RRIRHRPPRLPRPRPRPPKPPRP | 0.116 |
| RRIRARPPRLPRPRPRPHIMPRP | -0.277 |
| RRIRERPPRLPRPRPRPSVTPRP | -0.4 |

| Sequence | shrunken log2 fold change |
| --- | --- |
| RRIRGRPPRLPRPRPRPQPSPRP | 0.65 |
| RRIRLRPPRLPRPRPRPNRAPRP | 0.0133 |
| RRIRVRPPRLPRPRPRPQEGPRP | -0.15 |
| RRIRVRPPRLPRPRPRPICFPRP | 0.0059 |
| RRIRKRPPRLPRPRPRPKTIPRP | 0.0745 |
| RRIRRRPPRLPRPRPRPRRIPRP | 0.251 |
| RRIRTRPPRLPRPRPRPDACPRP | -0.0191 |
| RRIRIRPPRLPRPRPRPMEAPRP | -0.0793 |
| RRIRIRPPRLPRPRPRPGWPPRP | 0.353 |
| RRIRERPPRLPRPRPRPAWMPRP | 0.501 |
| RRIRFRPPRLPRPRPRPNSLPRP | -0.189 |
| RRIRTRPPRLPRPRPRPYRRPRP | -0.0138 |
| RRIRLRPPRLPRPRPRPESTPRP | 0.0274 |
| RRIRYRPPRLPRPRPRPHFLPRP | -0.13 |
| RRIRLRPPRLPRPRPRPPSWPRP | 0.0349 |
| RRIRPRPPRLPRPRPRPADRPRP | 0.408 |
| RRIRVRPPRLPRPRPRPICWPRP | 0.0488 |
| RRIRCRPPRLPRPRPRPPNFPRP | -0.0525 |
| RRIRYRPPRLPRPRPRPKLTPRP | -0.173 |
| RRIRSRPPRLPRPRPRPAKNPRP | 0.157 |
| RRIRSRPPRLPRPRPRPIVQPRP | 0.144 |
